B1: recombinant anti-dengue virus NS1 11E2 antibody (WT) (antibody, mouse IgG2a, kappa, V domains shown)
VH: QVQLQQSGAELVRPGTSVKISCKASGYSFTDYWIGWVKQRPGHGLEWIGDMVPGDLYINYQEKFKGKATLTADTSSNTAYMQLSSLTSEDSAVYFCTNFITVGGLDYWGRGTSLTVSS
VL: DVVMTQTPLTLSVTIGQPASISCKSSNSLLDSDGKTYLNWLLQRPGQSPKRLIYLVTKIDSGVPDRFTGSGSVTDFTLKISRVESEDLGVYYCWWGTHFPHTFGAGTKLEVKR
B2: Mutation 1-19 (antibody, V domains shown)
VH: B1 VH with S28T, D31E, V52F, L56I, Q61N, V102L, L105I
VL: B1 VL with K35R, T57S, W95Y
B3: Mutation 1-28 (antibody, V domains shown)
VH: B1 VH with S28T, V52F, L56I, Q61N, V102L, L105I
VL: B1 VL with K35R, T57S, W95Y
B4: WT 1-30 (antibody, V domains shown)
VH: B1 VH with D31E, Q61N, I100L, L105V
VL: B1 VL with D31E, P100A
B5: Mutation 1-25 (antibody, V domains shown)
VH: B1 VH with S28T, D31E, V52F, L56V, I100L, V102L
VL: B1 VL with K35R, T57S, W95Y
B6: Mutation 1-40 (antibody, V domains shown)
VH: B1 VH with S28T, V52F, L56V, V102L, L105I
VL: B1 VL with K35R, T57S, W95Y
B7: WT 1-1 (antibody, V domains shown)
VH: B1 VH with D31E, Q61N, L105V
VL: B1 VL with N27Q, D31E, W95Y, P100A
B8: WT 1-7 (antibody, V domains shown)
VH: B1 VH with D31E, L105V
VL: B1 VL with N27Q, D31E, W95Y, P100A
B9: Mutation 1-46 (antibody, V domains shown)
VH: B1 VH with S28T, D31E, V52F, L56I, Q61N, V102L, L105I
VL: B1 VL with K35R, T57S, I59V, W95Y
B10: WT 1-20 (antibody, V domains shown)
VH: B1 VH with L56I
VL: B1 VL with N27Q, D31E, K35R, I59L, P100A
B11: WT 1-4 (antibody, V domains shown)
VH: B1 VH with L56I, I100L, L105V
VL: B1 VL with N27Q, D31E, K35R, W95Y, P100A
B12: Mutation 3 (antibody, V domains shown)
VH: B1 VH with S28T, V52W
VL: B1 VL with N27Q, D31S, K35R, I59V, W95Q, P100F

Residue numbers refer to the chain shown, from its start.

In one assay the target is (DN-(I+II+III+IV)-NS) antigen (self-produced, expressed in insects) (dengue virus). As to the kind of experiment: capture ELISA, antibody at 12.346 ng/ml. For orientation: ELISA stands for enzyme-linked immunosorbent assay.
Consider B1, for which the OD450 (ref 630) was determined as 0.838 OD.

The target is the same in another assay. Description: capture ELISA, antibody at 4.115 ng/ml.
In the case of B1, the OD450 (ref 630) is 0.448 OD.

In another assay the target is DN quality control product recombinant protein (a recombinant antigen produced by the company itself) (dengue virus). Description: AMO sensor, antibody on sensor, antigen in solution.
A word on the Kd: it is the free concentration of one partner at which half of the binding sites on the other are occupied at equilibrium, for simple one-to-one binding. In general, koff refers to a measure of how fast the partners let go of each other. In general, kon refers to the rate constant with which the complex forms. Consider B2, for which the dissociation constant Kd stood at 4.72 nM, the koff amounted to 0.000279 s⁻¹ and the kon was 59200 M⁻¹ s⁻¹.
For B1, the Kd was 58.8 nM, the koff stood at 0.000398 s⁻¹ and the kon turned out to be 6770 M⁻¹ s⁻¹.
The like results for B3 were, in that order, 6.59 nM, 0.000337 s⁻¹ and 51200 M⁻¹ s⁻¹.
On the same counts, the results for B4 are 20.4 nM, 0.000149 s⁻¹ and 7280 M⁻¹ s⁻¹.
Consider B5, for which the Kd is 6.04 nM, the koff worked out at 0.000273 s⁻¹ and the kon was 45100 M⁻¹ s⁻¹.
On to B6, for which the Kd is 4.05 nM, the koff was found to be 0.000171 s⁻¹ and the kon worked out at 42300 M⁻¹ s⁻¹.
For B7, the Kd came out at 12.8 nM, the koff amounted to 5.86e-05 s⁻¹ and the kon is 4570 M⁻¹ s⁻¹.
In the case of B8, the Kd is 65.5 nM, the koff was found to be 0.000231 s⁻¹ and the kon amounted to 3530 M⁻¹ s⁻¹.
For B9, the Kd is 8 nM, the koff turned out to be 0.000479 s⁻¹ and the kon came out at 59900 M⁻¹ s⁻¹.
The like results for B10 were, in that order, 45.9 nM, 0.000143 s⁻¹ and 3120 M⁻¹ s⁻¹.
Turning to B11, the Kd is 28 nM, the koff was determined as 0.000142 s⁻¹ and the kon was found to be 5080 M⁻¹ s⁻¹.

Another assay has as its target (DN-(I+II+III+IV)-NS) antigen (self-produced, expressed in insects) (dengue virus). Description: capture ELISA, antibody at 1000 ng/ml.
B12: the OD450 (ref 630) is 0.847 OD.
For B1, the OD450 (ref 630) came out at 2.32 OD.

The next assay shares this target. As to the kind of experiment: capture ELISA, antibody at 37.037 ng/ml.
B1 came in with an OD450 (ref 630) of 1.66 OD.

For a further assay the target is unchanged. As to the kind of experiment: capture ELISA, antibody at 0 ng/ml (blank).
In the case of B1, the OD450 (ref 630) worked out at 0.163 OD.

For another assay the target is unchanged. Description: capture ELISA, antibody at 333.333 ng/ml.
B12: the OD450 (ref 630) stood at 0.347 OD.
On the same count and under the same terms, with B1 the figure was 2.38 OD.

A further assay has the same target. Description: capture ELISA, antibody at 1.372 ng/ml.
Molecule B1 gave an OD450 (ref 630) of 0.297 OD.

A further assay has the same target. As to the kind of experiment: capture ELISA, antibody at 111.111 ng/ml.
Consider B12, for which the OD450 (ref 630) was determined as 0.056 OD.
The same measure, in the same setting: with B1 the figure was 2.2 OD.

The values are drawn from patent publication US20210301000A1.
